Experimental data published in PMC4852461, “A closed conformation of the Caenorhabditis elegans separase–securin complex” (Open Biology, 2016).

Molecular target: T1, strep II-tagged full-length C. elegans separase (C. elegans, UniProt G5ED39 1-1262)
T1 construct: separase, Caenorhabditis elegans, full length (residues up to 1262; molecular weight 144.2 kDa); Vector pFBDM-strepII: double strepII tag with a PreScission cleavage site; also called strep II-tagged separase; source: Sf9 insect cells, co-expressed with securin, purified as complex (StrepTactin, SEC)
T1 sequence (looked up): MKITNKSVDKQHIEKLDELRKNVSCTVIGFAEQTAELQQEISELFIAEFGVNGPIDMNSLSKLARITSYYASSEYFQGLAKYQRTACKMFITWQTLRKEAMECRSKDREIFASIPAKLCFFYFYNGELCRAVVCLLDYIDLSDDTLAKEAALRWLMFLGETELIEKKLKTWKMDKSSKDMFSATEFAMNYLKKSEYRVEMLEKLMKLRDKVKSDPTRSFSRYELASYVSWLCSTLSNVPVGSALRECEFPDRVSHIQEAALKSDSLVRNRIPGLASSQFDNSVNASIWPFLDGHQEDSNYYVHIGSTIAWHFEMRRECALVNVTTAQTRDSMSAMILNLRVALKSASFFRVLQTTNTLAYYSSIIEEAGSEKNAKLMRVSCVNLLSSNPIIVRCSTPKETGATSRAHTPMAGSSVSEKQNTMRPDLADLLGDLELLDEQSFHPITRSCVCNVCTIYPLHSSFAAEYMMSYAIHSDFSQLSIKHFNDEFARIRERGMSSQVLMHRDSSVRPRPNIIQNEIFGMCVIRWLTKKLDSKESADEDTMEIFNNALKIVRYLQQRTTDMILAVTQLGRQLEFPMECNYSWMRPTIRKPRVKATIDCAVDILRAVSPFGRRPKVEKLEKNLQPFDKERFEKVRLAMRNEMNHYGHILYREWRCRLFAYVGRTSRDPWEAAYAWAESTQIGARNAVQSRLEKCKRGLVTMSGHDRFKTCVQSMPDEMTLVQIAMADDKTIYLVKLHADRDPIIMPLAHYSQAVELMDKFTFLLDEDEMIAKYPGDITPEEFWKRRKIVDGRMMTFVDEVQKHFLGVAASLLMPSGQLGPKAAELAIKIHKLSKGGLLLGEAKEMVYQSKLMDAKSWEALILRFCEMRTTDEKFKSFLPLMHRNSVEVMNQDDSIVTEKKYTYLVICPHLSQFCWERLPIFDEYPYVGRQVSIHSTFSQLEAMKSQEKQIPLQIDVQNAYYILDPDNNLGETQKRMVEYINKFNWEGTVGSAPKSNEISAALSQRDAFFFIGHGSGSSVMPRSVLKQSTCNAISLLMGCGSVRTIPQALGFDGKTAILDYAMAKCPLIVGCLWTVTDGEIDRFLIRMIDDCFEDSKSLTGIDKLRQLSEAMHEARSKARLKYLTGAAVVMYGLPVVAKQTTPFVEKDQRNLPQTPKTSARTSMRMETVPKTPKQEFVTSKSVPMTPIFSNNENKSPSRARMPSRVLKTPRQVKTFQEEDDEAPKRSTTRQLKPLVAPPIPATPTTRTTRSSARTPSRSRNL
Test: SEC-MALS; 1 mg/ml purified complex on Superose 6 10/300; 50 mM sodium phosphate, 100 mM NaCl, 20 mM NaF, 10% glycerol, 5 mM 2-mercaptoethanol, 3 mM sodium azide, pH 8.0
Conditions: both partners purified

B1: full-length C. elegans securin (co-expressed with StrepII-tagged separase) (natural protein, UniProt Q18235 1-244, looked up)
chain: MEDLNFEERGSTQIPASLQQHFSAKLGRQNELEKTPSRGGLGLVVNSSKTPGGKSLQSLASACKVPPSTKKNTIPIAFECYEDETDDQIADVATIKKTEKHPCSPIDTANRCETFDSLAADIEDDMLNLEDQDVVLSEDRPYGDVIDPAESEAEALAELGVEEWDSYPPIDPASRIGDDFNYVLRTEDFAEEGDVKLEETRHRTVIADIDEVKMSKAERNELFSMLADDLDSYDLLAEEANLPL
notes: it may be the same construct as m2; also called securin FL; source: Sf9 insect cells, co-expressed with StrepII-separase; in soluble lysate (pull-down) and purified as complex (StrepTactin, SEC)
- stoichiometry N: 1
